The values below come from patent US20160116478A1 (ORDER MADE MEDICAL RESEARCH, published 2016).

Assay [1] deals with T1, partial protein of human LGR4 (amino acids 311 to 577) (human, UniProt Q9BXB1 311-577).
T1 construct: Run as crude E. coli culture lysate, denatured, on SDS-PAGE and Western blot; also called LGR4 partial protein; partial protein of LGR4; not shown: N-terminal Trx-, S- and His-tags from pET32b vector; C-terminal His-tag from pET32b vector
T1 sequence: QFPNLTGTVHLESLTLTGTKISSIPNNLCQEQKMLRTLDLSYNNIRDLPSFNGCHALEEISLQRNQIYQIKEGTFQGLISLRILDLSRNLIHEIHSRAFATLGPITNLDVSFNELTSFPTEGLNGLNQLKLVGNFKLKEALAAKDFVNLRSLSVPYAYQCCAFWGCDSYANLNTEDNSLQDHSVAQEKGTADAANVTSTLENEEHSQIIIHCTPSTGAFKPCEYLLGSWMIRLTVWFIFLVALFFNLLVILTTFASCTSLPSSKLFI
Put plainly: Western blot of E. coli lysate expressing the partial protein. As to the method: (§1) After electrophoresis, the proteins were transferred onto a PVDF membrane. Skimmed milk dissolved at a concentration of 5% (w/v) in TBS-T was used to block the membrane at room temperature for 30 minutes, and the membrane was washed twice with TBS-T. Among the monoclonal antibodies obtained in Example 1. (7), Mu2C15 was diluted to 1 μg/mL with TBS-T and reacted with the membrane for 1 hour at room temperature. After washing three times with TBS-T, anti-mouse IgG polyclonal antibody-HRP label was diluted 100,000-fold with TBS-T for use as a secondary antibody. This dilution was reacted with the membrane at room temperature for 30 minutes, followed by washing three times with TBS-T. The membrane was soaked in Immobilon and then wrapped, followed by signal detection with LAS-3000 (FIG. 15b)
In general terms: A western blot detects proteins with antibodies after separation by electrophoresis.

In assay [2] the target is T2, partial protein of human LGR5 (amino acids 319 to 563) (human, UniProt O75473 319-563).
T2 construct: Run as crude E. coli culture lysate, denatured, on SDS-PAGE and Western blot; also called LGR5 partial protein; partial protein of LGR5; not shown: N-terminal Trx-, S- and His-tags from pET32a vector; C-terminal His-tag from pET32a vector
T2 sequence: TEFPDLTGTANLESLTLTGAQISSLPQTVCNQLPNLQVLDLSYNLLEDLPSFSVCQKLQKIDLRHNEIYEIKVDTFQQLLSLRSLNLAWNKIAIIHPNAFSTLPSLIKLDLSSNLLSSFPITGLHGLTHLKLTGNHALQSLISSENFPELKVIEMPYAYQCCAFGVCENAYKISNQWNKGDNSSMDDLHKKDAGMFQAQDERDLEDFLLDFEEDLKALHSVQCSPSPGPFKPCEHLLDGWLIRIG
The assay is described as above. As to the method: as §1

B1: Mu2C15 antibody (monoclonal antibody produced by Mouse-Mouse hybridoma Mu2C15) (antibody, V domains shown)
VH: QVQLQQSAAELARPGASVKMSCKASGYTFTTYTMHWVKQRPGQGLEWIGYINPNNGYTEFNQKFKDKTTLTADKSSSTAYMQLSSLTSEDSAVYYCARRDYYRFSTGFAYWGQGTLVTVSA
VL: DVVMTQTPLSLPVSLGDQASISCRSSQSLVHTNGNTYLHWYLQKPGQSPKLLIYKVSNRFSGVPDRFSGSGSGTDFTLKISRVEAEDLGVYFCSQSTHVPYTFGGGTKLEIK
notes: Mouse hybridoma antibody; Used as culture supernatant or Protein G purified, and unlabeled when immobilized in the sandwich ELISA; also called clone No. Mu2C15; anti-LGR6 antibody
As to B1, the binding result in assay [1] and in assay [2] was “no binding (tested: 1 µg/mL)” each time.
